B1: VH Y30Q (antibody, V domains shown)
VH: EVQLVESGGGLVQPGGSLRLSCAASGFNIQYNYIHWVRQAPGKGLEWVAEFSPYSGSTYYADSVKGRFTISADTSKNTAYLQMNSLRAEDTAVYYCARSAAIVDWYDYFKGFDYWGQGTLVTVSS
VL: DIQMTQSPSSLSASVGDRVTITCRASQSVSSAVAWYQQKPGKAPKLLIYSASSLYSGVPSRFSGSRSGTDFTLTISSLQPEDFATYYCQQYGSYLYTFGQGTKVEIK
B2: VH Y30F (antibody, V domains shown)
VH: B1 VH with Q30F
VL: B1 VL
B3: VL S93H (antibody, V domains shown)
VH: B1 VH with Q30Y
VL: B1 VL with S93H
B4: VL S93D (antibody, V domains shown)
VH: B1 VH with Q30Y
VL: B1 VL with S93D
B5: VH Y30I (antibody, V domains shown)
VH: B1 VH with Q30I
VL: B1 VL
B6: VL Y94H (antibody, V domains shown)
VH: B1 VH with Q30Y
VL: B1 VL with Y94H
B7: VH Y30W (antibody, V domains shown)
VH: B1 VH with Q30W
VL: B1 VL
B8: VL S93R (antibody, V domains shown)
VH: B1 VH with Q30Y
VL: B1 VL with S93R
B9: VL Y94S (antibody, V domains shown)
VH: B1 VH with Q30Y
VL: B1 VL with Y94S
B10: VL Y91K (antibody, V domains shown)
VH: B1 VH with Q30Y
VL: B1 VL with Y91K
B11: VH Y100bV (antibody, V domains shown)
VH: B1 VH with Q30Y, Y106V
VL: B1 VL
B12: VL Y94F (antibody, V domains shown)
VH: B1 VH with Q30Y
VL: B1 VL with Y94F
B13: VL S93E (antibody, V domains shown)
VH: B1 VH with Q30Y
VL: B1 VL with S93E
B14: VH Y30S (antibody, V domains shown)
VH: B1 VH with Q30S
VL: B1 VL
B15: VL Y91E (antibody, V domains shown)
VH: B1 VH with Q30Y
VL: B1 VL with Y91E
B16: VL Y91W (antibody, V domains shown)
VH: B1 VH with Q30Y
VL: B1 VL with Y91W
B17: VL Y94D (antibody, V domains shown)
VH: B1 VH with Q30Y
VL: B1 VL with Y94D
B18: VL S93Q (antibody, V domains shown)
VH: B1 VH with Q30Y
VL: B1 VL with S93Q
B19: VH V99K (antibody, V domains shown)
VH: B1 VH with Q30Y, V103K
VL: B1 VL
B20: VL S93N (antibody, V domains shown)
VH: B1 VH with Q30Y
VL: B1 VL with S93N
B21: VL S93F (antibody, V domains shown)
VH: B1 VH with Q30Y
VL: B1 VL with S93F
B22: VL Y91L (antibody, V domains shown)
VH: B1 VH with Q30Y
VL: B1 VL with Y91L
B23: VH Y30R (antibody, V domains shown)
VH: B1 VH with Q30R
VL: B1 VL
B24: VL Y94W (antibody, V domains shown)
VH: B1 VH with Q30Y
VL: B1 VL with Y94W
B25: VH Y31T (antibody, V domains shown)
VH: B1 VH with Q30Y, Y31T
VL: B1 VL
B26: VL Y91Q (antibody, V domains shown)
VH: B1 VH with Q30Y
VL: B1 VL with Y91Q
B27: VL Y94R (antibody, V domains shown)
VH: B1 VH with Q30Y
VL: B1 VL with Y94R
B28: VL Y91F (antibody, V domains shown)
VH: B1 VH with Q30Y
VL: B1 VL with Y91F
B29: VH Y100bA (antibody, V domains shown)
VH: B1 VH with Q30Y, Y106A
VL: B1 VL
B30: VH Y30A (antibody, V domains shown)
VH: B1 VH with Q30A
VL: B1 VL
B31: VL Y94E (antibody, V domains shown)
VH: B1 VH with Q30Y
VL: B1 VL with Y94E
B32: VL Y94Q (antibody, V domains shown)
VH: B1 VH with Q30Y
VL: B1 VL with Y94Q
B33: VL Y91S (antibody, V domains shown)
VH: B1 VH with Q30Y
VL: B1 VL with Y91S
B34: VH Y31V (antibody, V domains shown)
VH: B1 VH with Q30Y, Y31V
VL: B1 VL
B35: VH Y30D (antibody, V domains shown)
VH: B1 VH with Q30D
VL: B1 VL
B36: VL S93K (antibody, V domains shown)
VH: B1 VH with Q30Y
VL: B1 VL with S93K
B37: VH Y30T (antibody, V domains shown)
VH: B1 VH with Q30T
VL: B1 VL
B38: VH Y31L (antibody, V domains shown)
VH: B1 VH with Q30Y, Y31L
VL: B1 VL
B39: VL S93I (antibody, V domains shown)
VH: B1 VH with Q30Y
VL: B1 VL with S93I
B40: VH Y30L (antibody, V domains shown)
VH: B1 VH with Q30L
VL: B1 VL
B41: VL S93T (antibody, V domains shown)
VH: B1 VH with Q30Y
VL: B1 VL with S93T
B42: VH Y31F (antibody, V domains shown)
VH: B1 VH with Q30Y, Y31F
VL: B1 VL
B43: VL Y94L (antibody, V domains shown)
VH: B1 VH with Q30Y
VL: B1 VL with Y94L
B44: VH Y30K (antibody, V domains shown)
VH: B1 VH with Q30K
VL: B1 VL
B45: VL Y94V (antibody, V domains shown)
VH: B1 VH with Q30Y
VL: B1 VL with Y94V
B46: VH Y30V (antibody, V domains shown)
VH: B1 VH with Q30V
VL: B1 VL

These results are taken from patent US20260317437 (published 2026).

Substitutions are numbered along the chain they refer to. Names and notes keep the numbering of the source.

GCGR extracellular domain, sequence (P47871 26-477): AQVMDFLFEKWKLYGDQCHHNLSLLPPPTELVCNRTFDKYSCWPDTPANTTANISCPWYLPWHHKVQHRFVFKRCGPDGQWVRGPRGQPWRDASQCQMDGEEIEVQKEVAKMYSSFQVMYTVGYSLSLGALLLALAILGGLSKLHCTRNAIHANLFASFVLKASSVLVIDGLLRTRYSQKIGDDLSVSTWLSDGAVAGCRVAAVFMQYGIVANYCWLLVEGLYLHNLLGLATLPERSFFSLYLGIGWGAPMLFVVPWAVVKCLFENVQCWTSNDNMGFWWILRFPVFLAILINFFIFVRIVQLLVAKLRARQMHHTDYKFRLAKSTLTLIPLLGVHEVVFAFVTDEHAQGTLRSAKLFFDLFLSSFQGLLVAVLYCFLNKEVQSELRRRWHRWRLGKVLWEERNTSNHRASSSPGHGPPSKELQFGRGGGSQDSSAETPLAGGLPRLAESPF

The test has as its target GCGR extracellular domain (human, UniProt P47871). Put plainly: SPR. In general terms: SPR reads the build-up and loss of mass on a sensor chip optically.
Usually Kd stands for the free concentration of one partner at which half of the binding sites on the other are occupied at equilibrium, for simple one-to-one binding. High values mean lower affinity, low ones higher affinity. B1 registered a Kd of 23.4 nM.

In turn, B2 registered a Kd of 1.23 nM.

Molecule B3 displayed a Kd of 2.38 nM.

As to B4, binding was characterised by a dissociation constant (Kd) of 1.3 nM.

On to B5, for which binding was characterised by a dissociation constant (Kd) of 5.54 nM.

In turn, B6 had a Kd of 3.02 nM.

Molecule B7 returned a dissociation constant Kd of 6.44 nM.

The molecule B8 gave an equilibrium dissociation constant (Kd) of 0.766 nM.

The molecule B9 had a Kd of 2.08 nM.

In turn, B10 yielded a Kd of 2.08 nM.

Molecule B11 gave a Kd of 1.08 nM.

As to B12, the Kd came to 2.23 nM.

In turn, B13 showed a Kd of 0.968 nM.

The molecule B14 gave a Kd of 261 nM.

The molecule B15 displayed a Kd of 3.42 nM.

B16 came in with a dissociation constant (Kd) of 3.02 nM.

In turn, B17 came in with a Kd of 1.92 nM.

Consider B18, for which binding was put at a Kd of 2.18 nM.

B19 returned a Kd of 17.3 nM.

Regarding B20, the affinity, expressed as Kd, was 0.962 nM.

B21 gave a Kd of 5.59 nM.

B22: the Kd worked out at 4.2 nM.

The molecule B23 yielded a Kd of 110 nM.

With B24, the Kd is 2.55 nM.

B25 registered a Kd of 194 nM.

As for B26, the affinity, expressed as Kd, was 2.36 nM.

B27 displayed a Kd of 1.41 nM.

Regarding B28, the dissociation constant (Kd) was 1.69 nM.

For B29, the Kd was found to be 3.54 nM.

Consider B30, for which binding was put at a Kd of 21.3 nM.

B31 gave a Kd of 1.85 nM.

On to B32, for which the dissociation constant (Kd) is 2.08 nM.

Molecule B33 registered a dissociation constant Kd of 2.31 nM.

B34 had a dissociation constant (Kd) of 406 nM.

B35 had a dissociation constant Kd of 20.2 nM.

B36 showed a Kd of 2.91 nM.

For B37, the affinity, expressed as Kd, was 24.8 nM.

With B38, binding was put at a Kd of 2640 nM.

The molecule B39 had a Kd of 2.28 nM.

As to B40, binding was characterised by a dissociation constant (Kd) of 4.63 nM.

B41: the Kd came to 1.27 nM.

The molecule B42 gave a Kd of 6.94 nM.

Take B43: the Kd is 2.05 nM.

With B44, the equilibrium dissociation constant (Kd) was found to be 363 nM.

The molecule B45 returned a Kd of 2.46 nM.

B46: the Kd is 6.68 nM.
